Source: patent US20060073152A1

Tests used:
Assay in all cases: peptide competition for albumin
[1] = target: T1, rabbit serum albumin (rabbit), P49065
T1 chain: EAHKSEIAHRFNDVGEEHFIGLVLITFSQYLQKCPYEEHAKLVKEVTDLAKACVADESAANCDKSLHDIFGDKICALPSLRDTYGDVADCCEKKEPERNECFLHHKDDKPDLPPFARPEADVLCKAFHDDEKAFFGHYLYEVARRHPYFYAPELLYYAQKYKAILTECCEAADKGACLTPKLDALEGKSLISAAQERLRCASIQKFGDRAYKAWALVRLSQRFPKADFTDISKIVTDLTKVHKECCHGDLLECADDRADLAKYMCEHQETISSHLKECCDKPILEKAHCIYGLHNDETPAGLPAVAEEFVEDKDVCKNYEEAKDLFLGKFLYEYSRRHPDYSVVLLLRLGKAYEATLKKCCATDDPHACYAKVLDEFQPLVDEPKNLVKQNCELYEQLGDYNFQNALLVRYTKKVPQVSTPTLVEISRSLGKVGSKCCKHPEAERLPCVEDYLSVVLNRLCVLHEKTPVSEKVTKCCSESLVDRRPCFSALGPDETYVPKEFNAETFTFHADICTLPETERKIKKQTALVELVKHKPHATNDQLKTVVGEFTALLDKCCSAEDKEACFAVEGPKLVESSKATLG

[2] = target: mouse serum albumin (mouse), P07724
[3] = target: T2, rat serum albumin (rat), P02770
T2 chain: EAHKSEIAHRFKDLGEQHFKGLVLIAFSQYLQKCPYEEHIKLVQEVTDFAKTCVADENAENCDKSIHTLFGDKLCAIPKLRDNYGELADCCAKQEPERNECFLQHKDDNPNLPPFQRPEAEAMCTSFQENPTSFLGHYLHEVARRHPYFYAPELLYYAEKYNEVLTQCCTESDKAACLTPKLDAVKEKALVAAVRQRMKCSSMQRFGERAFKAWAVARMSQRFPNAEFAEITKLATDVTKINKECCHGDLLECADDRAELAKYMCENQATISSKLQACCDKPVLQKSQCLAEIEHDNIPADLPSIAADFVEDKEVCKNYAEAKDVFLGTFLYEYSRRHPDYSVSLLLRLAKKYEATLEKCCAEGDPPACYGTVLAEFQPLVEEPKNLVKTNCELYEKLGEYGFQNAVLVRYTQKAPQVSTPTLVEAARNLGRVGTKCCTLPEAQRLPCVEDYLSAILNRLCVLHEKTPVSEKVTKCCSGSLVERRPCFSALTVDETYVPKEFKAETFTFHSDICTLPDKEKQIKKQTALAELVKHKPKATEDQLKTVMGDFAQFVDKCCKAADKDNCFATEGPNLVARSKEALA

mouse serum albumin (mouse), P07724, sequence (P07724 25-608 limits assumed): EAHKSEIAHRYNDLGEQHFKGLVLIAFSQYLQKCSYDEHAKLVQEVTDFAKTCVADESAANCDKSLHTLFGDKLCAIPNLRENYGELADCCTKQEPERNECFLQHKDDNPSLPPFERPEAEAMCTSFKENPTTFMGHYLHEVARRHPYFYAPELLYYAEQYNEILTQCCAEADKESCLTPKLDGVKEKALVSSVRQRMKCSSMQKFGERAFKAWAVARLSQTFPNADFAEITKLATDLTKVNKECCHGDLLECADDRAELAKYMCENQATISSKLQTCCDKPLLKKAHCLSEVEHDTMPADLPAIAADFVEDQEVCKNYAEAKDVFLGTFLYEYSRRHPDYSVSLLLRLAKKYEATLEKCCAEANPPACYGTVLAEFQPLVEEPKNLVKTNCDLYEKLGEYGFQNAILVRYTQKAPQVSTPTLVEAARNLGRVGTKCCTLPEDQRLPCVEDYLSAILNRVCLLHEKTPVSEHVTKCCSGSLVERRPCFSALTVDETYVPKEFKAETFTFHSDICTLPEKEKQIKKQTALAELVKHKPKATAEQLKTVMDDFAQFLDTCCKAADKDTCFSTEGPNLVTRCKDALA

B1: SA13 (peptide)
peptide: RLMEDICLARWGCLWEDD
modifications: not checked
[1]
  IC50: 3200 nM
[2]
  IC50: 188 nM
[3]
  IC50: 2480 nM
